Assay [1] addresses TfR-IgA Fc fusion protein, Leu258Ala mutant (Homo sapiens (Human)) (UniProt P01876). Kind of assay: flow cytometry, FcαRI-Ig on CHOP cells expressing TfR-IgA Fc fusion. (In general: Flow cytometry measures light scatter and fluorescence of single cells or particles in a stream.)
In assay [2] the target is TfR-IgA Fc fusion protein, Leu256Ala mutant (Homo sapiens (Human)) (UniProt P01876). The description is as above.
The target of assay [3] is TfR-IgA Fc fusion protein, Leu257Ala mutant (Homo sapiens (Human)) (UniProt P01876). The assay is described as above.
The target of assay [4] is human serum IgA (human). Kind of assay: BIAcore, human serum IgA on CM5 chip, SSL7 mutant as analyte.
In assay [5] the target is human serum complement factor C5 (human) (UniProt P01031). Kind of assay: cell-based or functional assay.
The target of assay [6] is TfR-IgA Fc fusion protein, Asn316Ala mutant (Homo sapiens (Human)) (UniProt P01876). Nature of the assay: flow cytometry, biotinylated rSSL7 on CHOP cells expressing TfR-IgA Fc fusion.
Assay [7] has as its target TfR-IgA Fc fusion protein, Leu258Ala mutant (Homo sapiens (Human)) (UniProt P01876). The assay is described as above.
Assay [8] addresses TfR-IgA Fc fusion protein, Leu256Ala mutant (Homo sapiens (Human)) (UniProt P01876). The description is as above.
Assay [9] has as its target TfR-IgA Fc fusion protein, Leu257Ala mutant (Homo sapiens (Human)) (UniProt P01876). The description is as above.
Assay [10] concerns the target TfR-IgA Fc fusion protein, His317Ala mutant (Homo sapiens (Human)) (UniProt P01876). Described as above.

The Kd is the constant that tells how readily two partners part at equilibrium. A lower Kd goes with higher affinity.

Sequence of TfR-IgA Fc fusion protein, Leu256Ala mutant (Homo sapiens (Human)) (P01876 123-331 L137A limits assumed): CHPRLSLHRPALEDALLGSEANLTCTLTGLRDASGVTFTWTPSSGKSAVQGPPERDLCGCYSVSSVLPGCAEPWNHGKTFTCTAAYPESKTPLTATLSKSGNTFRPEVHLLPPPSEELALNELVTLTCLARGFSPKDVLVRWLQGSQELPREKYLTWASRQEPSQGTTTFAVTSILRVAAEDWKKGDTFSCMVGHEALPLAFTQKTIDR
Sequence of human serum complement factor C5 (human) (P01031 19-673 limits assumed, chain 1 of 2): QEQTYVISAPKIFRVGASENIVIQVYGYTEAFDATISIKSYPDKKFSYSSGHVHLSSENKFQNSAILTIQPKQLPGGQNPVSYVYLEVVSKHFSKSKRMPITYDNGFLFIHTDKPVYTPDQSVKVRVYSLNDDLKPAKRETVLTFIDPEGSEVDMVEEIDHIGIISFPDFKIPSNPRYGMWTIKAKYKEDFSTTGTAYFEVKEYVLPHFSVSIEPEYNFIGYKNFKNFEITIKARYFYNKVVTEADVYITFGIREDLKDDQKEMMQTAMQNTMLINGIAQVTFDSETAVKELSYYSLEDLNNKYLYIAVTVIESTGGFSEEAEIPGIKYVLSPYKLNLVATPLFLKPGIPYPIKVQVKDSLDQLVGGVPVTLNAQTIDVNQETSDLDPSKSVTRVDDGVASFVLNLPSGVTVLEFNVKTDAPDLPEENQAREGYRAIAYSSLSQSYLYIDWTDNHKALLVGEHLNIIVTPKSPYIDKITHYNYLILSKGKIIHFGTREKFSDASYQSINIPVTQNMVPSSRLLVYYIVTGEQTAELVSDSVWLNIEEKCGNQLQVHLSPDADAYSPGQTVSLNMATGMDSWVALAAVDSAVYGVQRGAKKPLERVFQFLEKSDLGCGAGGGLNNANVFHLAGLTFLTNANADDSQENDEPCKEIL
Sequence of human serum complement factor C5 (human) (P01031 678-1676 limits assumed, chain 2 of 2): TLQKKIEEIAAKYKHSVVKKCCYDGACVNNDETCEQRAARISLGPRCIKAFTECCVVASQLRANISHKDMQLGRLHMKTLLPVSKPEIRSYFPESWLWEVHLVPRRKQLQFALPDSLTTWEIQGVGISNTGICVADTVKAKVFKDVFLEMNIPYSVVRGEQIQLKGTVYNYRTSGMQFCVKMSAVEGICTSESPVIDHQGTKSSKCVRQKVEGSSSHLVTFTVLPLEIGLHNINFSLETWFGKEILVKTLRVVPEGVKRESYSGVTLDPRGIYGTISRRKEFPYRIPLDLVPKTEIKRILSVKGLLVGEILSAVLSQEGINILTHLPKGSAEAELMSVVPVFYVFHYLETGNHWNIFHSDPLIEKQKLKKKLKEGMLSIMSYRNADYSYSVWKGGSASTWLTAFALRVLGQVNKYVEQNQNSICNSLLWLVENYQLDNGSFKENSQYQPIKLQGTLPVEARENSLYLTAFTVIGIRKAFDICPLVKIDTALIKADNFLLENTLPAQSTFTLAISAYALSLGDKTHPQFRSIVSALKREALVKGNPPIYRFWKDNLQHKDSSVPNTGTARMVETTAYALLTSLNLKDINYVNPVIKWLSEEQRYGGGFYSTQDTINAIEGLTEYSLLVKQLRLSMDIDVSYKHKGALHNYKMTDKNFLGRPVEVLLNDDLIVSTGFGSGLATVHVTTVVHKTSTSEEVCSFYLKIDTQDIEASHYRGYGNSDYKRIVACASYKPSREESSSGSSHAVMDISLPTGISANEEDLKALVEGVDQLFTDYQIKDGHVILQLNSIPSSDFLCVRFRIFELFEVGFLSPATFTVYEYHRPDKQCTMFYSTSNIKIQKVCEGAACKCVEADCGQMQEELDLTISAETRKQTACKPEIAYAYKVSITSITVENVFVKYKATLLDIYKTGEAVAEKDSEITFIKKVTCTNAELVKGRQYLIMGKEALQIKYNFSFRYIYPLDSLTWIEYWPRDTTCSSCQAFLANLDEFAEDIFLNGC
Sequence of TfR-IgA Fc fusion protein, Leu257Ala mutant (Homo sapiens (Human)) (P01876 123-331 L138A limits assumed): as the sequence (P01876 123-331 L137A limits assumed) above, with A15L, L16A counted along it
Sequence of TfR-IgA Fc fusion protein, Leu258Ala mutant (Homo sapiens (Human)) (P01876 123-331 L139A limits assumed): as the sequence (P01876 123-331 L137A limits assumed) above, with A15L, L17A counted along it
Sequence of TfR-IgA Fc fusion protein, His317Ala mutant (Homo sapiens (Human)) (P01876 123-331 H198A limits assumed): as the sequence (P01876 123-331 L137A limits assumed) above, with A15L, H76A counted along it
Sequence of TfR-IgA Fc fusion protein, Asn316Ala mutant (Homo sapiens (Human)) (P01876 123-331 N197A limits assumed): as the sequence (P01876 123-331 L137A limits assumed) above, with A15L, N75A counted along it

On to “FcαRI-Ig (from UniProt P24071 22-227) (Fc fusion)”, for which the fold reduction of binding against WT IgA Fc is more than 100 fold in assay [1], 3.3 fold in assay [2] and 2.3 fold in assay [3].
Take SSL7 mutant L79A: in assay [4], the Change (fold in KD against SSL7 wild-type) came out at 91 fold and the Kd worked out at 100 nM.
As to SSL7 mutant N38T, in assay [4], the Change (fold in KD against SSL7 wild-type) worked out at 35 fold and the Kd is 38 nM.
On to SSL7 mutant N83A, for which, in assay [4], the Change (fold in KD against SSL7 wild-type) worked out at 4 fold and the Kd came out at 4 nM.
As for SSL7 mutant P82A, in assay [4], the Change (fold in KD against SSL7 wild-type) turned out to be 35 fold and the Kd amounted to 39 nM.
On the same counts, the results for SSL7 mutant R44A are 3.2 fold and 3.6 nM.
As to “SSL7 wild-type (haemolysis assay of FIG. 9)”, in assay [5], the haemolysis at 2 µM, % of the maximum lysis was found to be 10% and the inhibition of haemolysis at 2 µM was determined as 90%.
Regarding “recombinant SSL7 (GL1 S. aureus Greenlane), wild type”, the fold reduction of binding against WT IgA Fc in assay [6] was 1.8 fold; in assay [7] it was 6.5 fold; in assay [8], 11.5 fold; in [9] it was 15.4 fold; in [10], 1.2 fold.

The values above are taken from patent US20110027907A1.
